B1: KRT18 (parent)
chain: RVRSLETENRRLESKIREHLEKKG

Variants of: B1
Assay: protein stability index of a GFP-peptide fusion (GPS, HEK-293T) (PSI 1-6); higher = more stable
Conditions: c terminus: a fixed tail appended
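Note: lentivirally expressed fusions sorted by FACS into six bins by GFP to DsRed ratio, PSI derived from sequencing read proportions per bin multiplied by bin number.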

Protein stability index, by site and new letter:
L5: K 3.99 | Q 4.67 | F 4.5 | V 5.01 | D 4.64
E8: D 3.96 | I 4.4 | Y 3.82
E13: N 4.89 | H 4.21 | V 3.74 | K 4.84 | A 4.22 | M 3.26 | D 2.98 | S 3.91 | W 3.85 | Y 3.05
K22: A 3.65 | W 3.02 | E 4.86 | P 4.82 | R 4.21 | F 4.16 | Y 4.08 | L 4.12 | V 4.52
L12: D 4.21 | K 5.49 | E 5.88 | Q 5.19
L20: R 5.23 | F 4.59 | T 4.99 | H 5.35 | I 4.79 | K 4.96 | W 3.95 | N 4.78 | S 5.44
R17: N 4.25 | K 4.39 | V 4.96 | Y 4.92 | S 5.14 | A 3.79 | M 4.53 | Q 4.54 | C 5.24
H19: Q 5.04 | W 2.25 | I 4.03 | T 5.01 | S 4.79 | A 4.46 | P 5.53 | V 4.49
S4: V 3.54 | M 3.64 | C 3.5 | N 4.32
I16: E 3.79 | W 4.96 | D 5.71 | Q 5.09 | C 4.79 | G 5.45 | L 4.32 | M 5.17 | V 4.37 | P 5.28
R11: S 5.33 | W 3.69 | V 4.79 | T 4.94 | Y 3.33
N9: E 4.97 | W 1.85 | D 5.09
E21: Q 3.74 | V 3.93 | H 4.43 | C 4.28 | R 3.99 | L 3.19 | D 4.98 | M 4.15 | T 4.2 | G 4.62
R1: G 4.36 | F 1.21 | P 4.45 | Y 1.78 | V 4.19 | Q 4.7
E6: M 3.4 | D 4.62 | C 4.43 | N 3.33
E18: M 3.94 | R 3.99 | N 4.52 | H 3.99 | V 3.88 | T 4.25 | S 4.55 | P 4.88 | K 3.95 | I 4.29
G24: I 3.83 | F 3.56 | K 4.57 | Y 3.92 | L 4.03 | P 4.13 | V 4.01
R3: I 3.91 | P 4.42 | C 3.42 | W 3.43 | T 4.46 | G 4.64 | K 4.45 | A 4.51 | Q 4.37
V2: C 4.78 | A 4.64 | N 4.16 | H 4.07
T7: Q 4.13 | M 4.05 | L 4.54 | P 4.9 | S 4.25 | G 4.22 | N 4.34 | E 5.17 | C 4.97 | F 4.79 | D 4.17
S14: L 4.59 | H 4.92 | E 4.78 | A 4.6 | Y 4.24 | N 3.68
K23: A 4.56 | S 4.52 | H 3.96 | V 4.14 | C 3.86
R10: E 4.79 | F 4.76 | P 5.08 | N 4.69 | D 4.3 | V 5.08 | S 4.88
K15: D 3.69 | W 3.1 | I 4.41 | S 5.16 | F 3.04 | Y 4.7 | A 4.53 | N 5.24 | L 3.88
